Broadly, the Kd is the concentration at which binding is half-saturated.

The results in this text go back to patent US20230265187A1 (published 2023).

Where a chain is given by its changes, count along the chain named.

The target of test [1] is T1, his-tagged murine TIGIT (Acro Biosystems #TIT-M52E6) (murine, UniProt P86176 29-148, limits assumed).
T1 construct: Bought protein; also called mouse his-tagged TIGIT; not shown: his tag
T1 sequence (looked up): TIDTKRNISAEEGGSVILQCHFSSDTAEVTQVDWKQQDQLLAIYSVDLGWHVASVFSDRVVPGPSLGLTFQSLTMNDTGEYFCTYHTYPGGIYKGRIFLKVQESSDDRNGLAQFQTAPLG
In words: ELISA, coated His-TIGIT, 1 ug/ml. In general terms: An ELISA detects its analyte on a solid surface through an enzyme-linked reagent.

In test [2] the target is T2, his-tagged human TIGIT (Acro Biosystems #TIT-H52H3) (human, UniProt Q495A1 22-141).
T2 construct: Bought protein; also called His-tagged-TIGIT (human); not shown: his tag
T2 sequence (looked up): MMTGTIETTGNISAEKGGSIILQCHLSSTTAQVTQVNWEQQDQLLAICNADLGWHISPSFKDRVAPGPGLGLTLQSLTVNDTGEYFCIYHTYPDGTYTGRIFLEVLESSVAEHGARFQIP
The test can be described thus: ELISA, coated His-TIGIT, 1 ug/ml.

In test [3] the target is T3, His-tagged cynomolgus monkey TIGIT (Acro Biosystems #TIT-05223) (cynomolgus monkey, UniProt A0A7N9I9V4 89-209).
T3 construct: Bought protein; also called cyno TIGIT; cynomolgus TIGIT; not shown: His tag
T3 sequence (A0A7N9I9V4 entry or part of it): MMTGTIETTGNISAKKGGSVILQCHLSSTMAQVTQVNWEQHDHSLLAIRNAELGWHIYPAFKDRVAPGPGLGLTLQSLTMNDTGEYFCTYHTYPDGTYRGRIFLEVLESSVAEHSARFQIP
In words: ELISA, coated His-TIGIT, 1 ug/ml.

The target of test [4] is T4, human TIGIT on Jurkat cells (TIGIT/NFAT reporter Jurkat cells, BPS Bioscience #60538); Promega TIGIT Effector … (human, UniProt Q495A1 22-244).
T4 sequence (looked up): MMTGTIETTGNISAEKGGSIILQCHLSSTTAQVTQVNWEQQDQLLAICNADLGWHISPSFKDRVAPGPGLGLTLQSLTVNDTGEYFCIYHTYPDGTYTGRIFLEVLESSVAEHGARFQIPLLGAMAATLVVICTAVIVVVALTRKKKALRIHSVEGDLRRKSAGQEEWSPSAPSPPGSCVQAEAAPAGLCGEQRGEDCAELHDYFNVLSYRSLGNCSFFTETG
The test can be described thus: cell-based or functional assay.

The target in test [5] is T1, his-tagged murine TIGIT (Acro …). In words: SPR (Carterra LSA), scFv-Fc captured, His-TIGIT analyte; repeat. On the procedure:
(§1) Binding affinities of anti-TIGIT antibodies to human, cyno, and murine TIGIT were measured by Surface Plasmon Resonance (SPR) on a Carterra LSA instrument. Goat anti-human Fc antibody was amine coupled to a HC30M chip. ScFv-Fc supernatants were diluted 30-fold with HBSTE and were captured by the anti-human Fc coupled HC30M chip. A 1:2 dilution series of his-tagged human TIGIT, starting at 400 nM, was injected onto the chip for binding. A dilution series was also carried out for cyno TIGIT and murine TIGIT. Data were analyzed using the Carterra™ Kinetics software.

Test [6] concerns the target T3, His-tagged cynomolgus monkey TIGIT …. The description is as above. The method, then: as §1
The target in test [7] is T4, human TIGIT on Jurkat cells (TIGIT/NFAT …). The test can be described thus: flow cytometry, TIGIT/NFAT Jurkat cells, 10 ug/ml. On the technique in general: Flow cytometry measures light scatter and fluorescence of single cells or particles in a stream.
The target in test [8] is T2, his-tagged human TIGIT (Acro Biosystems …). In words: SPR (Carterra LSA), scFv-Fc captured, His-TIGIT analyte. The procedure, abridged: (§2)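 Affinity from His-TIGIT analyte injected in 1:2 serial dilution over antibody captured as scFv-Fc via amine-coupled goat anti-human Fc on an HC30M surface. Supernatants diluted 30-fold in HBSTE; kinetic fitting.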
Test [9] has as its target T1, his-tagged murine TIGIT (Acro …). The description is as above. The procedure, abridged: as §2
Test [10] concerns the target T3, His-tagged cynomolgus monkey TIGIT …. The test is described as above. The procedure, abridged:
as §2

B1: 43645p1.H10 (scFv, V domains shown)
VH: EVQLLESGGGLVQAGGSLRLSCAASGFTFDDYVMTWVRQAPGKGLEWVSLINWSGDRTYYADSVKGRFTISRDNSKNTLYLQMNSLRAEDTAVYYCVKHNLNYYYGMDVWGQGTTVTVSS
VL: QSVLTQPPSVSGTPGQRVTISCSGTISNVGNKYVSWYQQVPGTAPKLLIDYNQRPSGVPDRFSGSQSGTSASLTISGLQSEDEADYYCATWDDSLKGWVFGGGTKLTVL
Turning to B1, the “Elisa OD450” value in test [1] was 1.7 OD450; in test [2], 2 OD450; in [3] it was 1.85 OD450. In test [4], the “max. signal (% of 22G2)” value was 109 % of 22G2. The dissociation constant Kd amounted to 0.595 nM in test [5], 0.181 nM in [6] and 0.128 nM in test [8]. In [7], the MFI amounted to 10000 MFI.

B2: 43586p1.2.B2 (scFv, V domains shown)
VH: EMQLLESGGGLVQPGGSLRLSCAASGFTFDDYVMSWVRQAPGKGLEWVSLINWNGDKTYYADSVKGRFTISRDNSKNTLYLQMNSLRAEDTAIYYCAKHWIVFQYGMDVWGQGTTVTVSS
VL: QSVLTQPPSASGTPGQRVTISCSGSISNIETKYVSWYQQLPGTAPKLLIYNSDQRPSGVPDRFSGSKSGTSASLAISGLQSEDEADYYCVSWDASLKSWVFGGGTKLTVL
In the case of B2, the “Elisa OD450” value in test [1] came to 2.01 OD450; in test [2], 2.06 OD450; in test [3], 1.57 OD450. Moreover, in test [4], the “max. signal (% of 22G2)” value is 121 % of 22G2. The Kd is 1.3 nM in test [5]; 1.8 nM in [6]; 3.28 nM in test [9]; 0.245 nM in test [8]; 14.3 nM in test [10]. The molecule also displayed an MFI in test [7] of 9270 MFI.

B3: 43586p1.2.F9 (scFv, V domains shown)
VH: B2 VH with M2V, Q112R
VL: B2 VL
For B3, the “Elisa OD450” value in [1] came to 2.14 OD450; in [2], 2 OD450; in test [3], 1.71 OD450. Also, in test [4], the “max. signal (% of 22G2)” value is 127 % of 22G2. For the same molecule, the Kd came to 2.1 nM in test [5]; 2 nM in [6]; 4.95 nM in test [9]; 0.338 nM in [8]; 12.2 nM in test [10]. The MFI in [7] is 9110 MFI.

B4: 43586p1.2.E2 (scFv, V domains shown)
VH: EVQLLESGGGLVQPGGSLRLSCAASGFTFTSYLMSWVRQAPGKGLEWVSTITWDGDRTYYADSVKGRFTISRDNSKNTLYLQMNSLRVGDTAVYYCAKHWTVFQYGMDVWGQGTTVTVSS
VL: B2 VL with P8A, S25T, N51G, S52N, D53H, V90A, D93E, A94N, S95D
B4: the “Elisa OD450” value in test [1] worked out at 1.78 OD450; in test [2], 2.02 OD450; in test [3] it was 1.73 OD450. Moreover, in test [4], the “max. signal (% of 22G2)” value is 125 % of 22G2. Further, the Kd was determined as 67 nM in test [5]; 4.8 nM in test [6]; 122 nM in test [9]; 0.0486 nM in [8]; 9.5 nM in [10]. In test [7], this molecule displayed an MFI of 9320 MFI.

B5: 43586p1.2.G4 (scFv, V domains shown)
VH: B2 VH with M2V, I93V, K98R, M107L
VL: B2 VL with P8L, S25V, I26S, T31I, D53H, V90T, A94D, S95R
With B5, the entries for the “Elisa OD450” value in test [1], in test [2] and in test [3] were 2.04 OD450, 2.02 OD450 and 1.88 OD450, respectively. Besides, in test [4], the “max. signal (% of 22G2)” value is 101 % of 22G2. For the same molecule, the dissociation constant Kd in [5] came out at 4.8 nM; in test [6] it was 0.582 nM; in test [9] it was 6.89 nM; in [8], 0.394 nM; in [10], 3.19 nM. In test [7], this molecule yielded an MFI of 9340 MFI.

B6: 43586p2.G10 (scFv, V domains shown)
VH: B2 VH with M2V, N54S, D56G, K57T, I93V, F103Y
VL: QSVLTQPSSASGTPGQRVTISCSGTISNIETKYVSWYKYVSWYQQLPGTAPKLLIYNNVQRPSGVPDRFSGSQSGTSASLAISGLQSEDEAHYYCASWEGGLNSWVFGGGTKLTVL
In the case of B6, the “Elisa OD450” value in test [1] came out at 2.23 OD450; in test [2], 2.21 OD450; in [3] it was 1.83 OD450. Besides, the “max. signal (% of 22G2)” value in test [4] is 99 % of 22G2. Moreover, the Kd in [5] was 0.919 nM; in test [6], 3.7 nM; in [9], 3.05 nM; in test [8], 0.267 nM. In addition, the MFI in test [7] was found to be 9400 MFI.

B7: 43586p1.2.E4 (scFv, V domains shown)
VH: B4 VH with T30S, S31D, S35T, V88A, G89E
VL: B2 VL with S25T, T31I, N51G, S52N, D53H, V90S, D93E, A94N, S95D
Regarding B7, the entries for the “Elisa OD450” value in test [1], in test [2] and in test [3] were 2.03 OD450, 2.09 OD450 and 1.86 OD450, respectively. Further, the “max. signal (% of 22G2)” value in test [4] is 113 % of 22G2. Also, the Kd in test [5] was determined as 18 nM; in test [6], 2.8 nM; in [9], 66.5 nM; in test [8] it was 0.117 nM; in test [10], 25.4 nM. This molecule also showed an MFI in test [7] of 9550 MFI.

B8: 43586p1.2.C11 (scFv, V domains shown)
VH: B2 VH with M2V, Y60C
VL: B2 VL
Regarding B8, the results for the “Elisa OD450” value in test [1], in test [2] and in test [3] were 2.01 OD450, 2.03 OD450 and 1.81 OD450, respectively. In addition, in [4], the “max. signal (% of 22G2)” value was 106 % of 22G2. Also, the Kd in test [5] stood at 1.8 nM; in test [6], 1.9 nM; in test [9] it was 1.45 nM; in test [8] it was 0.0517 nM; in test [10] it was 2.56 nM. In test [7], this molecule returned an MFI of 9550 MFI.

B9: 43586p1.2.E1 (scFv, V domains shown)
VH: B4 VH with T30S, S31D, S35T, G44E, V88A, G89E
VL: B2 VL with S25T, T31I, N51G, S52N, D53H, V90S, D93E, A94N, S95D
For the molecule B9, the “Elisa OD450” value was found to be 2.11 OD450 in [1], 2.25 OD450 in [2] and 1.85 OD450 in [3]. Further, the “max. signal (% of 22G2)” value in test [4] was 111 % of 22G2. Besides, the equilibrium dissociation constant (Kd) worked out at 22 nM in [5]; 3.2 nM in test [6]; 7.34 nM in [9]; 0.029 nM in [8]; 6.27 nM in test [10]. In test [7], this molecule registered an MFI of 9480 MFI.

B10: 43586p1.2.G10 (scFv, V domains shown)
VH: B2 VH with M2V, G44E, Y59C
VL: B2 VL
Turning to B10, the “Elisa OD450” value in [1] was 2.1 OD450; in test [2], 1.99 OD450; in test [3], 1.52 OD450. Moreover, in [4], the “max. signal (% of 22G2)” value is 96 % of 22G2. In addition, the Kd in test [5] was 10 nM; in test [6], 6.3 nM; in test [9], 15.6 nM; in test [8], 0.941 nM; in [10] it was 14 nM. Moreover, the MFI in test [7] came to 10100 MFI.

B11: 43645p1.D1 (scFv, V domains shown)
VH: EVQLLESGGDLVQSGGSLRLSCAASGFSFWGYAMTWVRQAPGKGLEWVSTIAGNSYTYYADSVKGRFTISRDNSKNMVYLQMNGLRAEDTAVYYCAKDRSFYNYYDIDVWGQGTTVTVSS
VL: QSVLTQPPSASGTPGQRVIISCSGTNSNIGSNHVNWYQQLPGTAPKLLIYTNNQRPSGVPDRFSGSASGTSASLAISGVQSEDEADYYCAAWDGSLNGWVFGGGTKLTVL
As to B11, the “Elisa OD450” value in [1] was found to be 0.047 OD450; in test [2], 2.02 OD450; in [3], 1.51 OD450. The “max. signal (% of 22G2)” value in [4] is 111 % of 22G2. The Kd amounted to 14 nM in test [5], 2.9 nM in [6], 0.343 nM in test [8] and 17.6 nM in test [10]. This molecule also showed an MFI in test [7] of 9250 MFI.
